The text below walks through data of paper PMC4783044, “Stoichiometry and Change of the mRNA Closed-Loop Factors as Translating Ribosomes Transit from Initiation to Elongation” (PLoS ONE, 2016).

The target in assay [1] is T1, Flag-PAB1 (yeast, UniProt P04147 1-577).
T1 sequence (looked up): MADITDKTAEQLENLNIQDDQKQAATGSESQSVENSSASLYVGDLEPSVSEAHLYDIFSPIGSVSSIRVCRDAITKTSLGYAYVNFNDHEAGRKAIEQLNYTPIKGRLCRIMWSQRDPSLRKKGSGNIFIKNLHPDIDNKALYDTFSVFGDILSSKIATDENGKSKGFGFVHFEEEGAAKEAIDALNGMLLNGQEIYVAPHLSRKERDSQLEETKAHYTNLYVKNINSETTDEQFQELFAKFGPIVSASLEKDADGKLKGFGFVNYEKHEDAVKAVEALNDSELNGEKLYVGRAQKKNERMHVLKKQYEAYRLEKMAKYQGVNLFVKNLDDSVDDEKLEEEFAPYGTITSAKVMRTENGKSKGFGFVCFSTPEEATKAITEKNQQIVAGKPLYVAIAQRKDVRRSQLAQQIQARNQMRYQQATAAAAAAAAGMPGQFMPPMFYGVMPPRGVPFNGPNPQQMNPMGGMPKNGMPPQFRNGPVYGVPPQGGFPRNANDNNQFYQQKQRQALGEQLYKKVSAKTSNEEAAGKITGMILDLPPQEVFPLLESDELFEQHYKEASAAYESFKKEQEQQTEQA
The assay can be described thus: co-IP + AUC; as a1, but material migrating from 90S to 200S (polysomal translating complexes); cells on glucose (elongation), or glucose depleted 10 min and glucose added back for 1 min (initiation).

Assay [2] deals with T2, eIF4E-Flag (yeast, UniProt P07260 1-213).
T2 sequence (looked up): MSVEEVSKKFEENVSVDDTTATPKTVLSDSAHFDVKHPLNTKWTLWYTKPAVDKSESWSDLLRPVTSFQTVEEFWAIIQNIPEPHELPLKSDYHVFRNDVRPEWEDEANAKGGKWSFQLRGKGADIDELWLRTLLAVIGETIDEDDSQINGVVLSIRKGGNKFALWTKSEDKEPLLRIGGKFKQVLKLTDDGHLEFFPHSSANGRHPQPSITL
Described as above.

For assay [3], the target named is T1, Flag-PAB1. The experiment in a line: co-IP + AUC; one-step anti-Flag bead purification from yeast crude extract (Tris pH 7.5, 0.15 M KCl, 2 mM MgCl2, 10% glycerol, 4°C), Flag peptide elution, then AU-FDS of the GFP fusion with AU-A230 or AU-A260 (20°C, 15,000 rpm); material migrating at 77S (monosomal translating complex); cycloheximide added to cells; cells on glucose (elongation), or glucose depleted 10 min and glucose added back for 1 min or 0 min (initiation).

A further assay concerns the target Flag-SBP1 (yeast) (UniProt P10080). The assay is described as above.
Assay [4] addresses T2, eIF4E-Flag. The description is as above.
The target in assay [5] is T1, Flag-PAB1. The assay can be described thus: co-IP + AUC; one-step anti-Flag bead purification from yeast crude extract (Tris pH 7.5, 0.15 M KCl, 2 mM MgCl2, 10% glycerol, 4°C), Flag peptide elution, then AU-FDS of the GFP fusion with AU-A230 or AU-A260 (20°C, 15,000 rpm); material migrating at 77S (monosomal translating complex); cycloheximide added to cells; cells on glucose (elongation), or glucose depleted 10 min and glucose added back for 1 min or 0 min …. To be noted: partners not purified.

Assay [6] concerns the target T2, eIF4E-Flag. The description is as above. To be noted: partners not purified.

Where two headings read alike, the source gives them in different places. Where only a bound is given, the exact number is not on record here.

Chain of Flag-SBP1 (yeast) (P10080 whole entry): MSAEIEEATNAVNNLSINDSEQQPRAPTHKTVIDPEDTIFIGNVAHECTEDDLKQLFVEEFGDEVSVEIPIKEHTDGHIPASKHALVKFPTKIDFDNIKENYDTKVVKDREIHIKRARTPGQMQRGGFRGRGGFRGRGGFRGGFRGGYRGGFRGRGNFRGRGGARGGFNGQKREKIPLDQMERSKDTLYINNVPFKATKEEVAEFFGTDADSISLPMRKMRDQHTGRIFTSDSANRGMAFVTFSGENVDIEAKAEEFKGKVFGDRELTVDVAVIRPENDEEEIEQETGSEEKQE

With “eRF1-GFP (from UniProt P12385 1-437) (natural protein)”, the relative level in the polysomal translating complexes (90S to 200S), mRNA set at 100 (elongation) in the assay with Flag-PAB1 [1] and in the assay with eIF4E-Flag [2] was less than 0.3 per 100 mRNA each time. In the assay with Flag-PAB1 [1], the relative level in the polysomal translating complexes (90S to 200S), mRNA set at 100 (initiation) was less than 0.3 per 100 mRNA. Further, the relative level in the 77S monosomal translating complex, mRNA set at 100 (elongation) is 0.97 per 100 mRNA with Flag-PAB1 [3], less than 0.3 per 100 mRNA in the assay with Flag-SBP1 (yeast) and 2.8 per 100 mRNA in the assay with eIF4E-Flag [4]. The relative level in the 77S monosomal translating complex, mRNA set at 100 (initiation) with Flag-PAB1 [3] came out at 0.97 per 100 mRNA.
For the molecule “SBP1-GFP (from UniProt P10080 1-294) (natural protein)”, in the assay with Flag-PAB1 [1], the percent of the polyadenylated polysomes that contain SBP1 came out at 8.6%; the relative level in the polysomal translating complexes (90S to 200S), mRNA set at 100 (elongation) was determined as 8.3 per 100 mRNA; the relative level in the polysomal translating complexes (90S to 200S), mRNA set at 100 (initiation) was found to be 11 per 100 mRNA. The relative level in the polysomal translating complexes (90S to 200S), mRNA set at 100 (elongation) with eIF4E-Flag [2] is less than 0.3 per 100 mRNA. In the assay with Flag-PAB1 [3], the relative level in the 77S monosomal translating complex, mRNA set at 100 (elongation) was found to be 2.1 per 100 mRNA and the relative level in the 77S monosomal translating complex, mRNA set at 100 (initiation) is 3.3 per 100 mRNA. Besides, the relative level in the 77S monosomal translating complex, mRNA set at 100 (elongation) with eIF4E-Flag [4] is less than 0.3 per 100 mRNA.

B1: eIF4G2-GFP (natural protein, yeast, UniProt P39936 1-914, looked up)
chain: MTDQRGPPPPHPQQANGYKKFPPHDNQYSGANNSQPNNHYNENLYSAREPHNNKQYQSKNGKYGTNKYNNRNNSQGNAQYYNNRFNNGYRLNNNDYNPAMLPGMQWPANYYAPQMYYIPQQMVPVASPPYTHQPLNTNPEPPSTPKTTKIEITTKTGERLNLKKFHEEKKASKGEEKNDGVEQKSKSGTPFEKEATPVLPANEAVKDTLTETSNEKSTSEAENTKRLFLEQVRLRKAAMERKKNGLISETEKKQETSNHDNTDTTKPNSVIESEPIKEAPKPTGEANEVVIDGKSGASVKTPQHVTGSVTKSVTFNEPENESSSQDVDELVKDDDTTEISDTTGGKTVNKSDDETINSVITTEENTVKETEPSTSDIEMPTVSQLLETLGKAQPISDIYEFAYPENVERPDIKYKKPSVKYTYGPTFLLQFKDKLKFRPDPAWVEAVSSKIVIPPHIARNKPKDSGRFGGDFRSPSMRGMDHTSSSRVSSKRRSKRMGDDRRSNRGYTSRKDREKAAEKAEEQAPKEEIAPLVPSANRWIPKSRVKKTEKKLAPDGKTELFDKEEVERKMKSLLNKLTLEMFDSISSEILDIANQSKWEDDGETLKIVIEQIFHKACDEPHWSSMYAQLCGKVVKDLDPNIKDKENEGKNGPKLVLHYLVARCHEEFEKGWADKLPAGEDGNPLEPEMMSDEYYIAAAAKRRGLGLVRFIGYLYCLNLLTGKMMFECFRRLMKDLNNDPSEETLESVIELLNTVGEQFEHDKFVTPQATLEGSVLLDNLFMLLQHIIDGGTISNRIKFKLIDVKELREIKHWNSAKKDAGPKTIQQIHQEEEQLRQKKNSQRSNSRFNNHNQSNSNRYSSNRRNMQNTQRDSFASTKTGSFRNNQRNARKVEEVSQAPRANMFDALMNNDGDSD
notes: eIF4G2 of yeast, GFP fusion; The printed name puts GFP after the protein; also called TIF4632-GFP; source: yeast strain RP2384 (TIF4632-GFP::G418), in crude extract
Turning to B1, the “relative level in the 77S monosomal translating complex, mRNA set at 100 (elongation)” value was 3.9 per 100 mRNA with Flag-PAB1 [5], 15 per 100 mRNA with eIF4E-Flag [6] and less than 0.3 per 100 mRNA with Flag-SBP1 (yeast). Moreover, the figures for the “relative level in the 77S monosomal translating complex, mRNA set at 100 (initiation)” value with Flag-PAB1 [5] and with eIF4E-Flag [6] were 6.2 per 100 mRNA and 15 per 100 mRNA, respectively. The “relative level in the polysomal translating complexes (90S to 200S), mRNA set at 100 (elongation)” value with Flag-PAB1 [1] (partners not purified) turned out to be 9.4 per 100 mRNA; with eIF4E-Flag [2] (partners not purified) it was 61 per 100 mRNA. The “relative level in the polysomal translating complexes (90S to 200S), mRNA set at 100 (initiation)” value in the assay with Flag-PAB1 [1] (partners not purified) was 13 per 100 mRNA; in the assay with eIF4E-Flag [2] (partners not purified), 56 per 100 mRNA.
